Test results reported in US20140087995A1 (published 2014).
Numbered stars: 1 amine (or outer) side, 2 acyl side, 3 side chain; on linkers, the order of the positions; unused ones are H or OH. Bridge positions count the residues as written; N and C are the ends. Side chains are listed from the residue outwards. Ends that are not written are not given here. * marks the point of attachment. C20 diacid = O=C(O)CCCCCCCCCCCCCCCCCCC(=O)*; γGlu = O=C(O)[C@H](CCC(=O)[*:2])N[*:1]

T1: human amylin receptor (human, UniProt P30988 25-474; O60896 24-148, limits assumed)
T1 construct: whole, on cells; Calcitonin receptor plus RAMP-3 gives the amylin 3(a) receptor; membranes of Amylin 3(a)/CRE-luc cells were used; also called hAmylin-R; hAmylinR
T1 sequence (looked up) 1: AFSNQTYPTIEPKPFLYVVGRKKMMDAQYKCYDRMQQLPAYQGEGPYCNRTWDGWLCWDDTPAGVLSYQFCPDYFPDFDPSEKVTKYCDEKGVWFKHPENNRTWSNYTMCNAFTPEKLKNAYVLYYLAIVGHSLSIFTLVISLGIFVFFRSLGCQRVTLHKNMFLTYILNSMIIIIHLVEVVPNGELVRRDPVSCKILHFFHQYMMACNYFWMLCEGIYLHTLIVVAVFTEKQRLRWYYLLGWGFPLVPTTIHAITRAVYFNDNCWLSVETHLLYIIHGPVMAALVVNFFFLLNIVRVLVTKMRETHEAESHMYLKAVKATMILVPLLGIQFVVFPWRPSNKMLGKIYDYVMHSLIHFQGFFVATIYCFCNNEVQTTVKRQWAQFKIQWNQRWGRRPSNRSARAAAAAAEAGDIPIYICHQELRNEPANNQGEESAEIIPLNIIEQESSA
T1 sequence (looked up) 2: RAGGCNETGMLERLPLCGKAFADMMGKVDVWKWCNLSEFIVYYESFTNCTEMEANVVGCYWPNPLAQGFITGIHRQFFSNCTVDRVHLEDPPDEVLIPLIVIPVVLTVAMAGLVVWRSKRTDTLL

B1: N^ε1-[(4S)-4-carboxy-4-[[(4S)-4-carboxy-4-(19-carboxynonadecanoylamino)butanoyl]amino]butanoyl]-[Glu14,Arg17,Pro21,Pro27,Pro34,Arg35]-h-amylin (peptide)
peptide: K([γGlu-γGlu-C20 diacid])CNTATCATQRLAEFLRHSSPNFGAIPSSTNVGPRTY-NH2
modifications: disulfide 2-7; N-terminus assumed
SMILES: CC[C@H](C)[C@H](NC(=O)[C@H](C)NC(=O)CNC(=O)[C@H](Cc1ccccc1)NC(=O)[C@H](CC(N)=O)NC(=O)[C@@H]1CCCN1C(=O)[C@H](CO)NC(=O)[C@H](CO)NC(=O)[C@H](Cc1c[nH]cn1)NC(=O)[C@H](CCCNC(=N)N)NC(=O)[C@H](CC(C)C)NC(=O)[C@H](Cc1ccccc1)NC(=O)[C@H](CCC(=O)O)NC(=O)[C@H](C)NC(=O)[C@H](CC(C)C)NC(=O)[C@H](CCCNC(=N)N)NC(=O)[C@H](CCC(N)=O)NC(=O)[C@@H](NC(=O)[C@H](C)NC(=O)[C@@H]1CSSC[C@H](NC(=O)[C@@H](N)CCCCNC(=O)CC[C@H](NC(=O)CC[C@H](NC(=O)CCCCCCCCCCCCCCCCCCC(=O)O)C(=O)O)C(=O)O)C(=O)N[C@@H](CC(N)=O)C(=O)N[C@@H]([C@@H](C)O)C(=O)N[C@@H](C)C(=O)N[C@@H]([C@@H](C)O)C(=O)N1)[C@@H](C)O)C(=O)N1CCC[C@H]1C(=O)N[C@@H](CO)C(=O)N[C@@H](CO)C(=O)N[C@H](C(=O)N[C@@H](CC(N)=O)C(=O)N[C@H](C(=O)NCC(=O)N1CCC[C@H]1C(=O)N[C@@H](CCCNC(=N)N)C(=O)N[C@H](C(=O)N[C@@H](Cc1ccc(O)cc1)C(N)=O)[C@@H](C)O)C(C)C)[C@@H](C)O
notes: also called 14E, 17R, 21P, 27P, 34P, 35R
B2: N^ε1-[(4S)--4-carboxy-4-(19-carboxynonadecanoylamino)butanoyl]-[Glu14,Arg17,Pro21,Pro27,Pro37]-h-amylin (peptide)
peptide: K([γGlu-C20 diacid])CNTATCATQRLAEFLRHSSPNFGAIPSSTNVGSNTP-NH2
modifications: disulfide 2-7; N-terminus assumed
SMILES: CC[C@H](C)[C@H](NC(=O)[C@H](C)NC(=O)CNC(=O)[C@H](Cc1ccccc1)NC(=O)[C@H](CC(N)=O)NC(=O)[C@@H]1CCCN1C(=O)[C@H](CO)NC(=O)[C@H](CO)NC(=O)[C@H](Cc1c[nH]cn1)NC(=O)[C@H](CCCNC(=N)N)NC(=O)[C@H](CC(C)C)NC(=O)[C@H](Cc1ccccc1)NC(=O)[C@H](CCC(=O)O)NC(=O)[C@H](C)NC(=O)[C@H](CC(C)C)NC(=O)[C@H](CCCNC(=N)N)NC(=O)[C@H](CCC(N)=O)NC(=O)[C@@H](NC(=O)[C@H](C)NC(=O)[C@@H]1CSSC[C@H](NC(=O)[C@@H](N)CCCCNC(=O)CC[C@H](NC(=O)CCCCCCCCCCCCCCCCCCC(=O)O)C(=O)O)C(=O)N[C@@H](CC(N)=O)C(=O)N[C@@H]([C@@H](C)O)C(=O)N[C@@H](C)C(=O)N[C@@H]([C@@H](C)O)C(=O)N1)[C@@H](C)O)C(=O)N1CCC[C@H]1C(=O)N[C@@H](CO)C(=O)N[C@@H](CO)C(=O)N[C@H](C(=O)N[C@@H](CC(N)=O)C(=O)N[C@H](C(=O)NCC(=O)N[C@@H](CO)C(=O)N[C@@H](CC(N)=O)C(=O)N[C@H](C(=O)N1CCC[C@H]1C(N)=O)[C@@H](C)O)C(C)C)[C@@H](C)O
notes: also called 14E, 17R, 21P, 27P, 37P
B3: N^ε1-[(4S)-4-carboxy-4-[[(4S)-4-carboxy-4-(19-carboxynonadecanoylamino)butanoyl]amino]butanoyl]-[Glu14,Arg17,Pro21,Pro27,Pro34,Glu35]-h-amylin (peptide)
peptide: K([γGlu-γGlu-C20 diacid])CNTATCATQRLAEFLRHSSPNFGAIPSSTNVGPETY-NH2
modifications: disulfide 2-7; N-terminus assumed
SMILES: CC[C@H](C)[C@H](NC(=O)[C@H](C)NC(=O)CNC(=O)[C@H](Cc1ccccc1)NC(=O)[C@H](CC(N)=O)NC(=O)[C@@H]1CCCN1C(=O)[C@H](CO)NC(=O)[C@H](CO)NC(=O)[C@H](Cc1c[nH]cn1)NC(=O)[C@H](CCCNC(=N)N)NC(=O)[C@H](CC(C)C)NC(=O)[C@H](Cc1ccccc1)NC(=O)[C@H](CCC(=O)O)NC(=O)[C@H](C)NC(=O)[C@H](CC(C)C)NC(=O)[C@H](CCCNC(=N)N)NC(=O)[C@H](CCC(N)=O)NC(=O)[C@@H](NC(=O)[C@H](C)NC(=O)[C@@H]1CSSC[C@H](NC(=O)[C@@H](N)CCCCNC(=O)CC[C@H](NC(=O)CC[C@H](NC(=O)CCCCCCCCCCCCCCCCCCC(=O)O)C(=O)O)C(=O)O)C(=O)N[C@@H](CC(N)=O)C(=O)N[C@@H]([C@@H](C)O)C(=O)N[C@@H](C)C(=O)N[C@@H]([C@@H](C)O)C(=O)N1)[C@@H](C)O)C(=O)N1CCC[C@H]1C(=O)N[C@@H](CO)C(=O)N[C@@H](CO)C(=O)N[C@H](C(=O)N[C@@H](CC(N)=O)C(=O)N[C@H](C(=O)NCC(=O)N1CCC[C@H]1C(=O)N[C@@H](CCC(=O)O)C(=O)N[C@H](C(=O)N[C@@H](Cc1ccc(O)cc1)C(N)=O)[C@@H](C)O)C(C)C)[C@@H](C)O
notes: also called 14E, 17R, 21P, 27P, 34P, 35E
B4: N^ε1-[(4S)-4-carboxy-4-[[(4S)-4-carboxy-4-(19-carboxynonadecanoylamino)butanoyl]amino]butanoyl]-[Glu14,Arg17,Pro21,Pro31,Pro34,Glu35]-h-amylin (peptide)
peptide: K([γGlu-γGlu-C20 diacid])CNTATCATQRLAEFLRHSSPNFGAILSSTPVGPETY-NH2
modifications: disulfide 2-7 (inferred)
notes: also called 14E, 17R, 21P, 31P, 34P, 35E
B5: N^ε1-[(4S)-4-carboxy-4-[[(4S)-4-carboxy-4-(19-carboxynonadecanoylamino)butanoyl]amino]butanoyl]-[Glu14,Arg17,Pro21,Pro27,Pro37]-h-amylin (peptide)
peptide: K([γGlu-γGlu-C20 diacid])CNTATCATQRLAEFLRHSSPNFGAIPSSTNVGSNTP-NH2
modifications: disulfide 2-7; N-terminus assumed
SMILES: CC[C@H](C)[C@H](NC(=O)[C@H](C)NC(=O)CNC(=O)[C@H](Cc1ccccc1)NC(=O)[C@H](CC(N)=O)NC(=O)[C@@H]1CCCN1C(=O)[C@H](CO)NC(=O)[C@H](CO)NC(=O)[C@H](Cc1c[nH]cn1)NC(=O)[C@H](CCCNC(=N)N)NC(=O)[C@H](CC(C)C)NC(=O)[C@H](Cc1ccccc1)NC(=O)[C@H](CCC(=O)O)NC(=O)[C@H](C)NC(=O)[C@H](CC(C)C)NC(=O)[C@H](CCCNC(=N)N)NC(=O)[C@H](CCC(N)=O)NC(=O)[C@@H](NC(=O)[C@H](C)NC(=O)[C@@H]1CSSC[C@H](NC(=O)[C@@H](N)CCCCNC(=O)CC[C@H](NC(=O)CC[C@H](NC(=O)CCCCCCCCCCCCCCCCCCC(=O)O)C(=O)O)C(=O)O)C(=O)N[C@@H](CC(N)=O)C(=O)N[C@@H]([C@@H](C)O)C(=O)N[C@@H](C)C(=O)N[C@@H]([C@@H](C)O)C(=O)N1)[C@@H](C)O)C(=O)N1CCC[C@H]1C(=O)N[C@@H](CO)C(=O)N[C@@H](CO)C(=O)N[C@H](C(=O)N[C@@H](CC(N)=O)C(=O)N[C@H](C(=O)NCC(=O)N[C@@H](CO)C(=O)N[C@@H](CC(N)=O)C(=O)N[C@H](C(=O)N1CCC[C@H]1C(N)=O)[C@@H](C)O)C(C)C)[C@@H](C)O
notes: as for B2
B6: N^ε1-[(4S)-4-carboxy-4-[[(4S)-4-carboxy-4-(19-carboxynonadecanoylamino)butanoyl]amino]butanoyl]-[His14,Arg17,Pro21,Pro27]-h-amylin (peptide)
peptide: K([γGlu-γGlu-C20 diacid])CNTATCATQRLAHFLRHSSPNFGAIPSSTNVGSNTY-NH2
modifications: disulfide 2-7; N-terminus assumed
SMILES: CC[C@H](C)[C@H](NC(=O)[C@H](C)NC(=O)CNC(=O)[C@H](Cc1ccccc1)NC(=O)[C@H](CC(N)=O)NC(=O)[C@@H]1CCCN1C(=O)[C@H](CO)NC(=O)[C@H](CO)NC(=O)[C@H](Cc1c[nH]cn1)NC(=O)[C@H](CCCNC(=N)N)NC(=O)[C@H](CC(C)C)NC(=O)[C@H](Cc1ccccc1)NC(=O)[C@H](Cc1c[nH]cn1)NC(=O)[C@H](C)NC(=O)[C@H](CC(C)C)NC(=O)[C@H](CCCNC(=N)N)NC(=O)[C@H](CCC(N)=O)NC(=O)[C@@H](NC(=O)[C@H](C)NC(=O)[C@@H]1CSSC[C@H](NC(=O)[C@@H](N)CCCCNC(=O)CC[C@H](NC(=O)CC[C@H](NC(=O)CCCCCCCCCCCCCCCCCCC(=O)O)C(=O)O)C(=O)O)C(=O)N[C@@H](CC(N)=O)C(=O)N[C@@H]([C@@H](C)O)C(=O)N[C@@H](C)C(=O)N[C@@H]([C@@H](C)O)C(=O)N1)[C@@H](C)O)C(=O)N1CCC[C@H]1C(=O)N[C@@H](CO)C(=O)N[C@@H](CO)C(=O)N[C@H](C(=O)N[C@@H](CC(N)=O)C(=O)N[C@H](C(=O)NCC(=O)N[C@@H](CO)C(=O)N[C@@H](CC(N)=O)C(=O)N[C@H](C(=O)N[C@@H](Cc1ccc(O)cc1)C(N)=O)[C@@H](C)O)C(C)C)[C@@H](C)O
notes: also called 14H, 17R, 21P, 27P
B7: N^ε1-[(4S)-4-carboxy-4-[[(4S)-4-carboxy-4-(19-carboxynonadecanoylamino)butanoyl]amino]butanoyl]-[Ser14,Arg17,Pro21,Pro27,Pro34,Glu35]-h-amylin (peptide)
peptide: K([γGlu-γGlu-C20 diacid])CNTATCATQRLASFLRHSSPNFGAIPSSTNVGPETY-NH2
modifications: disulfide 2-7; N-terminus assumed
SMILES: CC[C@H](C)[C@H](NC(=O)[C@H](C)NC(=O)CNC(=O)[C@H](Cc1ccccc1)NC(=O)[C@H](CC(N)=O)NC(=O)[C@@H]1CCCN1C(=O)[C@H](CO)NC(=O)[C@H](CO)NC(=O)[C@H](Cc1c[nH]cn1)NC(=O)[C@H](CCCNC(=N)N)NC(=O)[C@H](CC(C)C)NC(=O)[C@H](Cc1ccccc1)NC(=O)[C@H](CO)NC(=O)[C@H](C)NC(=O)[C@H](CC(C)C)NC(=O)[C@H](CCCNC(=N)N)NC(=O)[C@H](CCC(N)=O)NC(=O)[C@@H](NC(=O)[C@H](C)NC(=O)[C@@H]1CSSC[C@H](NC(=O)[C@@H](N)CCCCNC(=O)CC[C@H](NC(=O)CC[C@H](NC(=O)CCCCCCCCCCCCCCCCCCC(=O)O)C(=O)O)C(=O)O)C(=O)N[C@@H](CC(N)=O)C(=O)N[C@@H]([C@@H](C)O)C(=O)N[C@@H](C)C(=O)N[C@@H]([C@@H](C)O)C(=O)N1)[C@@H](C)O)C(=O)N1CCC[C@H]1C(=O)N[C@@H](CO)C(=O)N[C@@H](CO)C(=O)N[C@H](C(=O)N[C@@H](CC(N)=O)C(=O)N[C@H](C(=O)NCC(=O)N1CCC[C@H]1C(=O)N[C@@H](CCC(=O)O)C(=O)N[C@H](C(=O)N[C@@H](Cc1ccc(O)cc1)C(N)=O)[C@@H](C)O)C(C)C)[C@@H](C)O
notes: also called 14S, 17R, 21P, 27P, 34P, 35E

These binders were tested against T1, human amylin receptor (assay: SPA competition binding, displacement of 125I-rat amylin from membranes with human amylin 3(a) receptor (Assay V)).
How it was run: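 SPA beads + BHK amylin 3(a)/CRE-luc membranes, 35 ng/μL final; buffer 50 mM Hepes pH 7.4, 1 mM CaCl2, 5 mM MgCl₂, 0.1% OA, 0.02% Tween20. 120 min, 25° C, shaken; scintillation count. IC₅₀ by one-site binding competition fit, taken as receptor affinity.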

Going from B1 to B2, the IC50 falls from 0.326 nM to 0.142 nM (2.3-fold).

First: B3
Second: B4
The IC50 of the first is 1.8-fold higher: 0.121 nM for the first, 0.069 nM for the second. The second is the more potent here.

B5 and B6 are within 1.5-fold of each other in IC50: 0.264 nM for the first, 0.179 nM for the second.

Binder B7 has an IC50 of 0.076 nM.
